Legend:
Assay in all cases: SPR
[1] = target: recombinant human FcRn (human) (UniProt P55899)
[2] = target: recombinant human FcγRIIIa F158 (human) (UniProt P08637)
[3] = target: recombinant human FcγRIa (human) (UniProt P12314)
[4] = target: recombinant human FcγRIIIb (human) (UniProt O75015)
[5] = target: recombinant human FcγRIIIa V158 (human)
[6] = target: recombinant human FcγRIIb (human) (UniProt P31994)
Chain of UniProt P31994 (P31994 43-310): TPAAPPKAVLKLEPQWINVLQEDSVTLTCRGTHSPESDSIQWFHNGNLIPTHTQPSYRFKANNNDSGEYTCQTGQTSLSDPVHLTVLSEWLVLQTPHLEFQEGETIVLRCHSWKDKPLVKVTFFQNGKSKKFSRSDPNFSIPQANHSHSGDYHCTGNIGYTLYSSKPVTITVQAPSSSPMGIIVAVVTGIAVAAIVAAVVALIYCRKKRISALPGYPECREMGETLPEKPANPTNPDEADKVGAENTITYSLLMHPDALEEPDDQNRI

Chain of UniProt P55899 (P55899 24-297): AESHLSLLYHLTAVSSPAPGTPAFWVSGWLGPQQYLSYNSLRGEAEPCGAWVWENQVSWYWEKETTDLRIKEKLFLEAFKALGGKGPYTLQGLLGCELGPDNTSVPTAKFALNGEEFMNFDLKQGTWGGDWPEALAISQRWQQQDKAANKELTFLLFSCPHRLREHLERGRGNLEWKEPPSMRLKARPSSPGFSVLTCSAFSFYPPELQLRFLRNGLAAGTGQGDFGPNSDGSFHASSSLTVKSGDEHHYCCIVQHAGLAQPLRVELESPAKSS
Chain of UniProt O75015 (O75015 17-200): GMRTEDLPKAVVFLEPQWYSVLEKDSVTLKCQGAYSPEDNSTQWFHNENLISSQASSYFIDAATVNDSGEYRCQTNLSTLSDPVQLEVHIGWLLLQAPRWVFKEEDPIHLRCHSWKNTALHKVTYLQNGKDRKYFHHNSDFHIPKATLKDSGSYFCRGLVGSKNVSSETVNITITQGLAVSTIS
Chain of UniProt P12314 (P12314 16-374): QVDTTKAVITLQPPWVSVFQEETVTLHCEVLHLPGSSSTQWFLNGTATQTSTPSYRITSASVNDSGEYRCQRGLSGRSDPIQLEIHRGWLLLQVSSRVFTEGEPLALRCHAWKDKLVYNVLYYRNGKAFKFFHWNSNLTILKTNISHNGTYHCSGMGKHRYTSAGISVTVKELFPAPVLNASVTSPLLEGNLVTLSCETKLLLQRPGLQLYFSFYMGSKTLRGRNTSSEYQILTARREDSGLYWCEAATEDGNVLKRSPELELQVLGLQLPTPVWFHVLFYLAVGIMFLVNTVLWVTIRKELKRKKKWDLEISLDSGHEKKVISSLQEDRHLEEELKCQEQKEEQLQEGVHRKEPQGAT
Chain of recombinant human FcγRIIIa V158 (human) (P08637 17-208): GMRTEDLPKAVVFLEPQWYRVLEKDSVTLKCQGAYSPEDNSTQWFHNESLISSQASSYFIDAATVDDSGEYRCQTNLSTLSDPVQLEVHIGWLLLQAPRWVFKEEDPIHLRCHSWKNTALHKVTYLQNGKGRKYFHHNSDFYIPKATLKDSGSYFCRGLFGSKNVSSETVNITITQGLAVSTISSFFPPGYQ

originator rituximab (antibody)
Kd [1]: 0.55 to 0.58 µM | Kd [2]: 7.4 to 10.3 µM | Kd [3]: 0.0104 to 0.0118 µM | Kd [4]: 9.2 to 11.7 µM | Kd [5]: 3.5 to 4.9 µM | Kd [6]: 11.4 to 12.8 µM

proposed biosimilar rituximab GP2013 (antibody)
Kd [1]: 0.54 to 0.58 µM | Kd [2]: 8.5 to 10.9 µM | Kd [3]: 0.0109 to 0.0124 µM | Kd [4]: 9.9 to 12.4 µM | Kd [5]: 4.2 to 5 µM | Kd [6]: 11 to 12.7 µM
